One assay deals with T1, human RSPO2 (Homo sapiens, UniProt Q6UXX9).
T1 construct: followed by the furin-like domains of RSPO2 (aa 31-146); expressed in transfected cells; host or cells: HEK-293
In words: FACS binding of 130M23 and humanized 130M23 to HEK293 cells expressing FLAG-RSPO2furin-CD4TM-GFP. As to conditions: five-fold serial dilutions. On the procedure: HEK293 cells were transiently transfected with an expression vector encoding FLAG-RSPO2furin-CD4TM-GFP. As described in Example 11, FLAG-RSPO2furin-CD4TM-GFP is a chimeric fusion protein enabling cell surface expression of the N-terminal furin-like domains of human RSPO2. FLAG-RSPO2furin-CD4TM-GFP transfected cells were incubated in the presence of anti-RSPO2 antibody 130M23 or humanized anti-RSPO2 antibody […]. Five-fold serial dilutions of each antibody were examined for their ability to bind to the RSPO2 expressing cells. The cells were stained with Phycoerythrin conjugated anti-IgG to reveal bound antibody. The cells were analyzed on a FACSCalibur instrument (BD Biosciences, San Jose, Calif.) and the data was processed using FlowJo software.

For assay [1], the target named is T2, human RSPO1 (Homo sapiens, UniProt Q2MKA7).
T2 construct: followed by the two furin-like domains of RSPO1 (aa 34-135); expressed in transfected cells; host or cells: HEK-293
T2 sequence (Q2MKA7 34-135): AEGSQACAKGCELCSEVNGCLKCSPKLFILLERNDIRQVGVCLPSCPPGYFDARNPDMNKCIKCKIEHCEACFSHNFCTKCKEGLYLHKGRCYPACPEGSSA
In words: FACS screening of hybridoma supernatants on HEK-293 cells expressing FLAG-RSPO1furin-CD4TM-GFP. The assay is classed as binding. The text has this:
Antibodies were generated against recombinant human RSPO1 protein amino acids 31-263 (R&D Systems, Minneapolis, Minn.). Mice (n=3) were immunized with RSPO1 protein using standard techniques. Sera from individual mice were screened against RSPO1 approximately 70 days after initial immunization using FACS analysis. The animal with the highest antibody titer was selected for final antigen boost after which spleen cells were isolated for hybridoma production. SP2/0 cells were used as fusion partners for the mouse spleen cells. Hybridoma cells were plated at 1 cell per well in 96 well plates, and the supernatants were screened against human RSPO1 by FACS analysis.
For FACS screening of anti-RSPO1 antibodies a chimeric fusion protein enabling cell surface expression of the N-terminal furin-like domains of human RSPO1 was constructed.
HEK-293 cells were transfected with FLAG-RSPOlfurin-CD4TM-GFP. After 48 hours, transfected cells were suspended in ice cold PBS containing 2% FBS and heparin and incubated on ice in the presence of 50 μl of hybridoma supernatants for 30 minutes. A second incubation with 100 μl PE-conjugated […] secondary antibody was performed to detect cells bound by antibody. Cells were incubated with an anti-FLAG antibody (Sigma-Aldrich, St. Louis, Mo.) as a positive control and an anti-PE antibody as a negative control. The cells were analyzed on a FACSCalibur instrument (BD Biosciences, San Jose, Calif.) and the data was processed using FlowJo software.

For assay [2], the system named is RSPO1-induced β-catenin signaling. Briefly: TOPflash luciferase assay in HEK-293 cells, Wnt3a plus human RSPO1. It is filed as cell-based. The settings on record: Wnt3a 5 ng/ml, RSPO1 10 ng/ml; antibodies 10 to 0.625 μg/ml. On the procedure:
HEK-293 cells were transfected with a 6×TCF-luciferase reporter vector (TOPflash, Millipore, Billerica, Mass.). After 24-48 hrs, the transfected HEK-293 cells were incubated with a combination of Wnt3a (5 ng/ml) and human RSPO1 (10 ng/ml, R&D BioSystems) in the presence of anti-RSPO1 antibodies 89M2, 89M4, 89M5, 89M7, 89M19, and 89M25, or 2 irrelevant control antibodies 254M14 and 254M26 (2-fold dilutions at 10 μg/ml to 0.625 μg/ml). The cells were incubated for 16 hours and luciferase activity was measured using Steady-Glo® Luciferase Assay System according to the manufacturer's instructions (Promega, Madison, Wis.).

The next assay concerns the target T3, binding of RSPO1 to LGR5 (Homo sapiens, UniProt Q2MKA7).
T3 construct: full-length human RSPO1, RSPO2, RSPO3 and RSPO4 were ligated in-frame to a human Fc region; made in house; host or cells: RSPO1-Fc: insect cells (baculovirus); LGR5 construct: transiently transfected HEK-293
Briefly: FACS: blocking of soluble RSPO1-Fc binding to LGR5 on HEK-293 cells. The settings on record: RSPO1-Fc 10 μg/ml, antibodies 10 μg/ml. On the procedure: HEK-293 cells were transiently transfected with the FLAG-LGR5-CD4TM-GFP construct (previously described in Example 2). After 48 hours, transfected cells were suspended in ice cold PBS containing 2% FBS and heparin and incubated on ice in the presence of RSPO1-Fc protein (10 μg/ml) and antibodies 89M2, 89M4, 89M5, 89M7, 89M19 or 89M25 (10 μg/ml). A second incubation with 100 μl PE-conjugated anti-human Fc secondary antibody was performed to detect cells bound by the RSPO1-Fc fusion protein. The cells were analyzed on a FACSCalibur instrument (BD Biosciences, San Jose, Calif.) and the data was processed using FlowJo software.

The test system of the next assay is OV19 ovarian tumor cells. Briefly: OV19 ovarian tumor xenograft growth in NOD/SCID mice. It is filed as in vivo. As to conditions: day 35, vs control antibody; antibodies 15 mg/kg once a week, intraperitoneal. On the procedure: Dissociated OV19 ovarian tumor cells (1×10^5cells) were injected in the mammary fat pads of 6-8 week old NOD/SCID mice. Tumors were allowed to grow for 45 days until they reached an average volume of 134 mm^3. The mice were randomized (n=10 per group) and treated with anti-RSPO1 antibody 89M5, 89M25, taxol, a combination of 89M5 and taxol, a combination of 89M25 and taxol, or control antibody 1B7.11. Antibodies were dosed at 15 mg/kg once a week, and taxol was dosed at […] once a week. Administration of the antibodies and taxol was performed via injection into the intraperitoneal cavity. Tumor growth was monitored and tumor volumes were measured with electronic calipers at the indicated time points. Data are expressed as mean±S.E.M.

Assay [3] has as its system PN31 pancreatic tumor cells. Briefly: PN31 pancreatic tumor xenograft growth in NOD/SCID mice. It is filed as in vivo. The settings on record: antibodies 15 mg/kg once a week, intraperitoneal. The procedure:
Dissociated PN31 pancreatic tumor cells (1×10^5cells) were injected subcutaneously into the flanks of 6-8 week old NOD/SCID mice. Tumors were allowed to grow for 61 days until they reached an average volume of 120 mm^3. The mice were randomized (n=10 per group) and treated with anti-RSPO1 antibody 89M5, anti-RSPO2 antibody 130M23, gemcitabine, a combination of 89M5 and gemcitabine, a combination of 130M23 and gemcitabine, or control antibody 1B7.11. Antibodies were dosed at 15 mg/kg once a week, and gemcitabine was dosed at […] once a week. Administration of the antibodies and gemcitabine was performed via injection into the intraperitoneal cavity. Tumor growth was monitored and tumor volumes were measured with electronic calipers at specific time points. Data are expressed as mean±S.E.M.

Assay [4] has as its target T2, human RSPO1. Briefly: FACS binding of 89M5 and humanized 89M5 to HEK293 cells expressing FLAG-RSPO1furin-CD4TM-GFP. As to conditions: five-fold serial dilutions. On the procedure:
HEK293 cells were transiently transfected with an expression vector encoding FLAG-RSPO1furin-CD4TM-GFP. As described in Example 5, FLAG-RSPO1furin-CD4TM-GFP is a chimeric fusion protein enabling cell surface expression of the N-terminal furin-like domains of human RSPO1. FLAG-RSPO1 furin-CD4TM-GFP transfected cells were incubated in the presence of anti-RSPO1 antibody 89M5 or humanized anti-RSPO1 antibody h89M5-H2L2. Five-fold serial dilutions of each antibody were examined for their ability to bind to the RSPO1 expressing cells. The cells were stained with Phycoerythrin conjugated anti-IgG to reveal bound antibody. The cells were analyzed on a FACSCalibur instrument (BD Biosciences, San Jose, Calif.) and the data was processed using FlowJo software.

T3 sequence (Q2MKA7 21-263): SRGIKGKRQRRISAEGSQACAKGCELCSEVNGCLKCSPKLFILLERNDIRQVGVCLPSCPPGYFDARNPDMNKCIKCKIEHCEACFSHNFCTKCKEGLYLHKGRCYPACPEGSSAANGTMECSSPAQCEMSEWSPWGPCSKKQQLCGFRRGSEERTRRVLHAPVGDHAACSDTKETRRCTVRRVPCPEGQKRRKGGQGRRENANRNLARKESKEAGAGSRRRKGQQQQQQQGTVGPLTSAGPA
T1 sequence (Q6UXX9 31-146): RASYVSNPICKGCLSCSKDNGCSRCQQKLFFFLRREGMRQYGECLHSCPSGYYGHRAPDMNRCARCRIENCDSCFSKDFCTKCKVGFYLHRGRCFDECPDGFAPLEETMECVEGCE

B1: h130M23-H1L2: humanized anti-RSPO2 antibody; heavy chain SEQ ID NO:70, light chain SEQ ID NO:71 (antibody)
heavy: EVQLVESGGGLVKPGGSLRLSCAASGFTFSSYAMSWVRQAPGKGLEWVSSISSGGSTYYPDSVKGRFTISRDNAKNSLYLQMNSLRAEDTAVYYCARGGDPGVYNGDYEDAMDYWGQGTTVTVSSASTKGPSVFPLAPCSRSTSESTAALGCLVKDYFPEPVTVSWNSGALTSGVHTFPAVLQSSGLYSLSSVVTVPSSNFGTQTYTCNVDHKPSNTKVDKTVERKCCVECPPCPAPPVAGPSVFLFPPKPKDTLMISRTPEVTCVVVDVSHEDPEVQFNWYVDGVEVHNAKTKPREEQFNSTFRVVSVLTVVHQDWLNGKEYKCKVSNKGLPAPIEKTISKTKGQPREPQVYTLPPSREEMTKNQVSLTCLVKGFYPSDIAVEWESNGQPENNYKTTPPMLDSDGSFFLYSKLTVDKSRWQQGNVFSCSVMHEALHNHYTQKSLSLSPGK
light: DIQMTQSPSSLSASVGDRVTITCKASQDVSSAVAWYQQKPGKAPKLLIYWASTRHTGVPSRFSGSGSGTDFTLTISSVQAEDFATYYCQQHYSTPWTFGQGTKVEIKRTVAAPSVFIFPPSDEQLKSGTASVVCLLNNFYPREAKVQWKVDNALQSGNSQESVTEQDSKDSTYSLSNTLTLSKADYEKHKVYACEVTHQGLSSPVTKSFNRGEC
modifications: h130M23-H1L2 Heavy chain amino acid sequence; h130M23-H1L2 Light chain amino acid sequence
As to B1, the “binding to human RSPO2 (FACS)” value in the assay with human RSPO2 is “bind”.

B2: 89M5: anti-RSPO1 monoclonal antibody, hybridoma ATCC PTA-11970; variable regions SEQ ID NO:10 and SEQ ID NO:11 (antibody, V domains shown)
VH: EVQLQQSGPELVKPGASVKISCKTSGYTFTGYTMHWVRQSHGKTLEWIGGINPNNGGTTYNQNFKGKATLTVEKSSTTAYLELRSLTSEDSALYYCARKEFSDGYYFFAYWGQGTLVTVSA
VL: DIVMTQSHKFMSTSVGDRVNITCKASQDVIFAVAWYQQKPGQSPKLLIYWASTRHTGVPDRFTGSVSGTDYTLTISSVQAEDLALYYCQQHYSTPWTFGGGTKLEIK
modifications: 89M5 Heavy chain variable region; 89M5 Light chain variable region
As for B2, the “binding to RSPO1 (FACS)” value in the assay with human RSPO1 [1] was “bound”. For the same molecule, in assay [2], the “blocking of RSPO1-induced β-catenin signaling” value is “blocked”. Also, the “blocking of binding of RSPO1 to LGR5” value in the assay with binding of RSPO1 to LGR5 is on record as “blocked”. In addition, the “reduction in tumor growth” value with OV19 ovarian tumor cells turned out to be 40%. Besides, the “effect on tumor growth as single agents” value in assay [3] is given as “only a minimal effect”. Further, in the assay with human RSPO1 [4], the “binding to human RSPO1 (FACS)” value was “bind”.

The record behind these values is patent US9644034B2, “Anti-RSPO2 antibodies and uses thereof” (OncoMed Pharmaceuticals, Inc., priority 2011, dated 2017).
